B1: Cytohesin-3 (Homo sapiens), O43739-2 (parent)
chain: MDEDGGGEGGGVPEDLSLEEREELLDIRRRKKELIDDIERLKYEIAEVMTEIDNLTSVEESKTTQRNKQIAMGRKKFNMDPKKGIQFLIENDLLQSSPEDVAQFLYKGEGLNKTVIGDYLGERDEFNIKVLQAFVELHEFADLNLVQALRQFLWSFRLPGEAQKIDRMMEAFASRYCLCNPGVFQSTDTCYVLSFAIIMLNTSLHNHNVRDKPTAERFIAMNRGINEGGDLPEELLRNLYESIKNEPFKIPEDDGNDLTHTFFNPDREGWLLKLGGRVKTWKRRWFILTDNCLYYFEYTTDKEPRGIIPLENLSIREVEDPRKPNCFELYNPSHKGQVIKACKTEADGRVVEGNHVVYRISAPSPEEKEEWMKSIKASISRDPFYDMLATRKRRIANKK
B2: ADP-ribosylation factor 6 (Homo sapiens), P62330 (parent)
chain: MGKVLSKIFGNKEMRILMLGLDAAGKTTILYKLKLGQSVTTIPTVGFNVETVTYKNVKFNVWDVGGQDKIRPLWRHYYTGTQGLIFVVDCADRDRIDEARQELHRIINDREMRDAIILIFANKQDLPDAMKPHEIQEKLGLTRIRDRNWYVQPSCATSGDGLYEGLTWLTSNYKS

Assays:
arf6_human ARF6, P62330 = variants of: B1; conditions: with arf6_human ARF6, P62330
CYTH3, O43739-2 = variants of: B2; conditions: with CYTH3, O43739-2
CYTH1, Q15438-2 = variants of: B2; conditions: with CYTH1, Q15438-2
Chain of CYTH1, Q15438-2 (Q15438 other isoform, or with tags, fused parts or gaps): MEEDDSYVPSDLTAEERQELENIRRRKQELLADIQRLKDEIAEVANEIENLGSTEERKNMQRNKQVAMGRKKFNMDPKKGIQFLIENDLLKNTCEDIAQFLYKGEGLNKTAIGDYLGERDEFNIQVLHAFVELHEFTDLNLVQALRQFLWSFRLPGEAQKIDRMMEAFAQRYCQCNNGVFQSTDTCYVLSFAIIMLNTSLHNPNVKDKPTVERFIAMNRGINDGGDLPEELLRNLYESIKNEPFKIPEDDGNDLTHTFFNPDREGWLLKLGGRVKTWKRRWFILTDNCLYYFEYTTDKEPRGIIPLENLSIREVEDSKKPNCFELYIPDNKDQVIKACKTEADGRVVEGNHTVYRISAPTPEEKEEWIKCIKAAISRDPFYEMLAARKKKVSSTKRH

CYTH2, Q99418-2 = variants of: B2; conditions: with CYTH2, Q99418-2
Chain of CYTH2, Q99418-2 (Q99418 other isoform, or with tags, fused parts or gaps): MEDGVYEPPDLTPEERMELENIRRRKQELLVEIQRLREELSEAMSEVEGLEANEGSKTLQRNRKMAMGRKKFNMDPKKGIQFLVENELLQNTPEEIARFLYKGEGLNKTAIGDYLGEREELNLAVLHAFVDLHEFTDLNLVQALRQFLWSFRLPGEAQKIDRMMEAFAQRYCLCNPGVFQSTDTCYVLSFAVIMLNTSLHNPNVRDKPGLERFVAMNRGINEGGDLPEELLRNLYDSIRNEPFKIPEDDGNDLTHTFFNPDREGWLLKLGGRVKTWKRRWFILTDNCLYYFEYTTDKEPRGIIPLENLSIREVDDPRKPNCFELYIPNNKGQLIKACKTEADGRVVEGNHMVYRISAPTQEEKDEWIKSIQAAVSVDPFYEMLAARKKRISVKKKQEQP

effect of a mutation on the interaction (arf6_human ARF6, P62330) | effect of a mutation on the interaction (CYTH3, O43739-2) | effect of a mutation on the interaction (CYTH1, Q15438-2) | effect of a mutation on the interaction (CYTH2, Q99418-2) | Variant
decreasing interaction strength | – | – | – | L388A
decreasing interaction strength | – | – | – | K392A
– | with no effect | with no effect | with no effect | Q67L

— IntAct's records for PubMed 23940353
